Holding throughout (assay): AUC
The target of experiment [1] is vMIP-II L13F (human herpesvirus-8).
The target is the same in experiment [2]. The source holds these as a separate data set.
The target is the same in experiment [3]. The source holds these as a separate data set.

Like-named read-outs stand apart in the source and are kept apart here.

One may read the Kd as a measure of binding affinity in units of concentration. What is called stoichiometry N is the number of molecules, sites or subunits per partner or assembly. For the substance vMIP-II L13F (natural protein), the values for the equilibrium dissociation constant (Kd) in experiment [1], in experiment [2] and in experiment [3] were 740 nM, 129 µM and 41 µM, respectively. In addition, in experiment [3], the stoichiometry N stood at 2.

The record behind these values is paper PMC2924879.
